The values that follow come from patent publication US20240026407A1, “MODIFICATION OF SAPONINS” (GLAXOSMITHKLINE BIOLOGICALS SA, priority 2020, published 2024).

To fix the notation:
B1: 1005 (protein, listed as Enterococcus casseliflavus)
chain: MTKKWQATWIEPQQEPTRKEPPFSLADMFSGKKVVQDPPEERLLPPHYLKKIFTVENKSIKQASLTMTAHGIYQAKINGQAVSEAIFAPDYTSYTQYLQYQTYDVTHMLKEKNVWSVTLADGWYAGRVSVSGGSAQFGDRLGILGEIEIYYTDGTYEIIVTDEDFVSSHGKYVYSDLFIGEKQDLRLEKENWETDFDLTGFTKVSKADYGFDHLTPQRGPQVKRQEKLAAKSIWWEKDAVIVDFGQVIAGRVQLQIPLADGQEITIEHSEVLDREGHFFNNIVGRNKDQKDVFIGNGREACLEPDFTFHGFRYIKIDGLDVLPDKQSVWAYAIYSDMKATGSFTTSNQKINQLIENIQWSQKGNMLSIPTDCPQRERVGWTGDIQVFGPTATFFMDVYDFLGRWLDNVRLEQQADGQIVDYTPAPRDYFEGESLTGSLSSAGWGDAIVLLPWTLYQRYGKLEILVENYQAMKRWLSFSRKSAAGDKTDDKQYLWDTKFHFGDWMFPSFMIGEDAKGPMETAFVTKDLFGTAFLAHSSQLFAQISQLLDEEEENWSDFSNKVKAAFQKYYWRDDHLTADFQGSYVIALAFDLLDETASKAAAARLTELIIANNYCLDTGFLSIPYLLDVLCDYGYQELALKLLLQEECPSWLYEVNHGATTIWESWASIQPDGTVCDFSFNHYAFGCVGDWLVRRLAGLQVTEPGFTFFTISPLEQTAISSYHLNYTTAYGDIEIERSNDQFHLSVPQNTKAIFQYGETSKVLTSGKHHLTIKGEKIYE
B2: 994 (protein, listed as Catenulispora acidiphila)
chain: MLIRRRFATALALILAFAAVTPVASAAPSPSLSLSASSAGTEVSVSALQTDATTNPLGIDDPHPSLSWKLASQINGEYQSAYRIVVAGSQSDASAGVGSVWDSGEVASGNSVGIAYGGPALASEKTYYWAVQIWDEHGTASGWSAPAQWEMGLLNPGDWQGAQWISPTSASAASPLLRKDFTLAKPVARARAYVFGLGFYELHLNGGKVGDRVLEPASTPYAQRDLYAAYDVTGTVKQGGNAVGLWLGNGYDANFSQYGFRWLGPKQAIVLIDVTFSDGTHQAVTSDGSWTWSPSPITADGIYNGESYDARMVQPGWDAAGFSASSLQPVRTVAAPGGSLVADAMPPIRVTQTLNAVKLTSPSPGVYVYDFGQNVSGWEVLRTQGAAGSTVKMQTAEDLLANGTIDTTTNRNALSTDSYTLAGTGSTETYEPRFTYHGFRYVEVTGDPQTPVVSSLQARVVHADLASTSTFSSSDATLNQIWQNNQRTMLNNQMSTPTDNPVRDERTPPGMDVQAYHDASTAEFGMDTYYANYLRDMPPGTALPSDGGNAQQPDMGGDQVTLAWTLYQQYGDIATLAAMYPLMKKFVDTNATNVPGHIWSTGFGDWCPPDHSSNANGGMGNPSAGACTSEVPIVNTALSYLQASDVAKAATALGQAGDAAHYTQLAGDIANAFNAAFLNSDHASYGDGRETTSILPLAFGMVPAADVPAVGARLVDTVVRGNGGHLDTGIFGTRYLMDALAGIGRTDLAMTVLDQGTYPGYGFEIGKGATTDWEEWTYASSMESHDHAMFAGINASFASRLAGIEPTGPGYSTVSIAPQIPAGLQSVAASVSTVRGTVASSWSVSGGKVTMDVTVPVGATASVRVPSFGQGSVTTVSPAGAGAVQVSAGGTSSTYTVGSGSWEFTGSLVPASSTVLPGTWTQCAVETGNCSVAGTETVAFGAQGKYDYATVSGTVACSNTVFGDPDSGVSKACYAEPAPATTPGAWQQCAAETATCSFAGTETVAFGAQGKYTYATLTGGTPCTTTIFGDPAYGIPKSCFIEAPPPAATTWIPCAAETATCTLTASRDVAFGAHGDYAYRTANAPTTCTNAVFGDPAPGAVKACYLQ
B3: 1022 (protein)
chain: MRKSRSLGLGLVKYILIVVALVGCIQTSPTMDESAINHQAQTIYLRGGFNGWSTATAFDRTEQAGIYVAKTKITMGNHGFKLAPADWSFAWVVSAHENQLVELNKSYRLNTAGGEEDSLFIETRGLYQFTLDITQANQPKLLVKLLSADSAKTPPPHYGEMTSLEFNRFNGEKVEAVFSAKATNNGLREYVHSTTQSLRDPVPSYSRYQEDIAHPRVRSGNIAFDALFALAVDEMKLNSVEQIKDGNYNNGQAIDCSCFETGEKWNYVWTRDLSYAAHLSLAQFDAQRVENSLLFKVSNLRASAPISPFLAGNAPYTQIIQDTGSGGSWPVSTDRMTWAFGATALLANLAEPQRSQFARKAFTALVNTIENDRLVAFDSHLGLYLGEQSFLDWREQSYASWIVDDLSSMSTAISLSTNAGHYQALVLAADLAGQLGDVPAAKKYKGWASALKNAINQHLWLEEKGLYSSLTSGHYHKVALEKFDWLGQSLAIVTGIASDEQARAILSSYPHGPMGAAVIFPQQPNIPVYHNRAIWPFVTAYGLNAAVKGKNVAVTQAALDTLTRAAALNLSNMENLEWLSSEPILLDKTHPQLSGPVINSKRQLWSVAAYLNLVSNTIFGAQPSQQGIEFRPFIPKSFKDQWFKHSQVINLINYQWRGKQFDLQLKFAPSNKKFGAYVVNRVKVNGLAHSGVLVEQALKQHNLIEIELVLDNTVDNNINLVDSEPLAFDPLVYAPLEPKLSVVAKANDYVIQIEDKGNANLTSAAIEYEIYRDGNLLTRVPAGAGVSQWLDKGQAQQAHCYAVAARFVKSQNQSHLSEVVCMGERMQIPVADQRIQSNKPKKILGEQLIFSQWGEADDTLQVHFSIDQPGKYAIQFNYHNPANAINLGISNGVKWLEVVNSSNQQSVKQAAVQFPHTRVDKTQFGDNLSTPVEIELAAGDYKLHLHDFYNMSYLQSNKTYTAAGGMKGISNKFDIYAVTFVLLPLK
modifications: Catenovulum agarivorans
B4: 1049 (protein, listed as Chitinophaga pinensis)
chain: MKQCMGIWLLFLSLQTWGQQLQVVHLRTDNKTNPLGCQLSPRLSWQLSASYNNCVQQAYQLQFSDDSTTLNSKKHTGKHVESADPFLTLPAAFAGITLLPAHTYYWRVQVWDKAGRPSGWSEVASFINALNGPADWKGAKWIGYEDVVDSMRVVPGVHNGTDKFYQKHKARQRTIVPLFRKAFSVQGKVKSALLYISGLGQYEASLNGVRLGDNFLAPGWTHYDETALYNTYDLTNVLQAGENALGVIVGNGFFNVNKERYRKLSVVYGMPRMICRLLITYENGKTTNIVSGTDWRTSASPITFTSIYGGEDYDAGKEQSGWDQPGFNDTEWKPAIVVKATEKRLLPEEDYPVKVMEVLPVRRITQPQPAVYMYDFGQNASGIIGLKIKGKKGQTVKLIPAELTNDKQLANQKATGSPYYFSYTLKGDGIETWQPRFSYYGFRYVQVEGAAPDTAVHTGDVPEIISLELLHTRNAAPVNGTFSCSNDLFNRIHTLILWAIKSNMQSVLTDCPHREKLSWLEQDYLMGNAIQYSYDIDLLYRKLIRDMKEAQTGEGLVPDIAPEFVFFDDHGFGFRDSPEWGSAGVIVPWLHYRWYGDKTVISDAYPMVKKYVAYLGAKAQHNILSYGLGDWFDNGPQRPGVAQLTPKGVTATAIYYYDLVLAGNMADLLGKTAEAKAFRVQADKVKATFNGEYFHTGTKVYSTGSQTAMAMPLCVGLVEEQYRQAVFSNMVDSIRQQRNQLTAGDIGFHFLVQALQEGGASDLLYEMNNRSDVPGYGFQLAKGATTLTESWAALEQVSNNHLMLGHLLEWFYTGLGGITQQAGSIGYKQLQICPEVVGDITWVKTSYNTPYGTVRSEWEKKDGGMLFRISIPPNSNAIVKLPAKREGRITADGKPLNNQDLSFEKERVVMYLGSGDYEFSTFK
B5: 1070 (protein, listed as Thermobaculum terrenum)
chain: MRKIIAQDPFTRNDPGIPWDQRGQWPASWVAARRLPSPPYVVAYRLAFVLPQAATATLHVTADERYELFLDSERVGRGSERGDADHWFYETYELELPAGPHTLVARVWSLGPLAPYAQLSVRHGFLLAAEPPLTEALSTGIAPWEAKRLEGYSWVNPSPAWGTGGNIALSAAQFPWGVERGEGDGWEPVEVVERAVGRLMALEAPPQHLLRPATLPAMLEVPIRVGRVRHVSAPSSEEVSSLPIRAEQALDEPEWQAMLEGRSSVTVPPHTTRRVIIDLEDYYCAYPELVTSGGEGGAVRLHWAESLYEDGRGRHKGDRDAIEGKYFRGVGDVFLPDGGDSRRFDTLWWQAGRYLELLVRTADSPLTVASLRLRETRYPLEMESAIATGDPDLDATIPLMVRAMQMCSHETYMDCPYYEQLMYAGDTRLEALVTYVMTRDDRLPRKALRMFDASRLASGLTQARYPSRVRQIIAPFALWWVAMVCDYAYWRPGTEYVRELMPGVRATMEAFERWRGSDGLLESPEGWNVTDWVPEWPAGIPPEGEWGRSGLLNWHLALVTRMVADLERALGNPQMAEHFGARAREIADAALRAFWVPSRGLMADDTACQRFSEHTQCLAILSGLLPPAIEEQVGRSLLEARDIARTTIYFSHYLFEACRKLGRVDVLLARLGLWRELVDKGLRTTIEAPEPTRSDCHAWGAHPLYHLFATFLGIRPAGLGFSAVEIAPQPAALRRLEGRLVHPRGDVWVAMEVDEEQIRARVRLPEAVPGVFCWGSRRVPLRPGEETDVVLPRAQG

The first experiment in a line: Experiment 6-1: screening of rhamnosidases for derhamnosylation of saponins in treated bark extract (2%), QS-17 2296 to QS-18 2150 (PAR %). The class given is biochemical, Quillaja saponaria. The conditions noted are these: TBE 2%, pH 7.5, 30 degC, 18 h; TIC peak area ratio percent of rhamnosylated starting saponin to derhamnosylated product, LCMS/MS; negative controls 4.876, 5.225.
As for B1, the “QS-17 (PAR %)” value is reported as 5.166%.
Same read-out and setting: with B2 the figure was 5.177%; with B3, 5.190%.
As for B4, the “QS-17 (PAR %)” value amounted to 5.211%.
Turning to B5, the “QS-17 (PAR %)” value is recorded as 5.168%.

A short description of the next experiment: Experiment 6-1: screening of rhamnosidases for derhamnosylation of saponins in treated bark extract (2%), desglucosyl-QS-17 2134 to QS-21 1988 (PAR %). The class given is biochemical, Quillaja saponaria. The note with it: TBE 2%, pH 7.5, 30 degC, 18 h; TIC peak area ratio percent, LCMS/MS; negative controls 2.719, 2.158.
B1: the “Peak75 (PAR %)” value came to 2.767%.
As to B2, the “Peak75 (PAR %)” value amounted to 2.147%.
Still for that read-out and setting: with B3 the figure was 2.368%.
B4: the “Peak75 (PAR %)” value turned out to be 2.417%.
For the molecule B5, the “Peak75 (PAR %)” value is listed as 2.275%.

The nature of the next experiment: Experiment 6-1: screening of rhamnosidases for derhamnosylation of saponins in treated bark extract (2%), QS-17 2310 to QS-18 2164 (PAR %). The class given is biochemical, Quillaja saponaria. The note with it: TBE 2%, pH 7.5, 30 degC, 18 h; TIC peak area ratio percent, LCMS/MS; negative controls 3.061, 2.429.
Consider B1, for which the “Peak57 (PAR %)” value is 2.799%.
As for B2, the “Peak57 (PAR %)” value turned out to be 3.300%.
On the same count and under the same terms, with B3 the figure was 2.882%.
Same read-out and setting: as for B4, the figure is 2.271%; as for B5, 3.311%.

A short description of the next experiment: Experiment 6-1: specificity of rhamnosidases towards other rhamnose residues (C3 saccharide rhamnose, C28 saccharide rhamnose). The class given is biochemical, Quillaja saponaria. The conditions noted are these: TBE 2%, pH 7.5, 30 degC, 18 h; LCMS/MS; negative controls 0.18, 0.17.
Take B1: the “ratio PP/QS-21” value worked out at 0.17.
Consider B2, for which the “ratio PP/QS-21” value is on record as 0.16.
Still for that read-out and setting: with B3 the figure was 0.15; with B4, 0.18; with B5, 0.18.
